The record followed here is patent publication US11814447B2, “Peptide ligands for binding to EphA2” (BICYCLERD LIMITED, priority 2018, dated 2023).

Starred links: 1 amine or outer side, 2 acyl side, 3 side chain; linkers in the order of their positions; H or OH if unused. Positions of bridges follow the written chain, without caps; N, C: chain ends. Non-standard residues stand in square brackets, D forms with d. No end group written: not given here. ThiAz = 3-(1,2,4-triazol-1-yl)-alanine, O=C([C@H](Cn1cncn1)N[*:1])[*:2]; TATA = O=C(CC[*:1])N1CN(C(=O)CC[*:2])CN(C(=O)CC[*:3])C1; Ala(2-furyl) = N[C@@H](Cc1ccco1)C(=O)O; 1Nal = N[C@@H](Cc1cccc2ccccc12)C(=O)O; TBMB = c1c(C[*:1])cc(C[*:3])cc1C[*:2]; hArg = N=C(N)NCCCC[C@H](N)C(=O)O; 2Thi = N[C@@H](Cc1cccs1)C(=O)O; Tle = CC(C)(C)[C@H](N)C(=O)O; Pip = O=C(O)[C@@H]1CCCCN1; Aze = O=C(O)[C@@H]1CCN1; Aib = CC(C)(N)C(=O)O; azaGly = NNC(=O)O; βAla = NCCC(=O)O; Sar = CNCC(=O)O

One assay has as its target T1, Human EphA2 (Ecto) (Human, UniProt P29317 24-537).
T1 construct: extracellular domain
Description: FP competition, tracer Compound 18. The method, then: (§1) Peptides without a fluorescent tag were tested in competition with a peptide with a fluorescent tag and a known Kd (Table 2). Peptides were diluted to an appropriate concentration in assay buffer as described in the direct binding assay with a maximum of 5% DMSO, then serially diluted 1 in 2. […] Measurements were conducted as for the direct binding assay, however the gain was determined prior to the first measurement. Data analysis was in Systat Sigmaplot version 12.0 where the mP values were fit to a user defined cubic equation to generate a Ki value: […]
T1 sequence (P29317 24-537): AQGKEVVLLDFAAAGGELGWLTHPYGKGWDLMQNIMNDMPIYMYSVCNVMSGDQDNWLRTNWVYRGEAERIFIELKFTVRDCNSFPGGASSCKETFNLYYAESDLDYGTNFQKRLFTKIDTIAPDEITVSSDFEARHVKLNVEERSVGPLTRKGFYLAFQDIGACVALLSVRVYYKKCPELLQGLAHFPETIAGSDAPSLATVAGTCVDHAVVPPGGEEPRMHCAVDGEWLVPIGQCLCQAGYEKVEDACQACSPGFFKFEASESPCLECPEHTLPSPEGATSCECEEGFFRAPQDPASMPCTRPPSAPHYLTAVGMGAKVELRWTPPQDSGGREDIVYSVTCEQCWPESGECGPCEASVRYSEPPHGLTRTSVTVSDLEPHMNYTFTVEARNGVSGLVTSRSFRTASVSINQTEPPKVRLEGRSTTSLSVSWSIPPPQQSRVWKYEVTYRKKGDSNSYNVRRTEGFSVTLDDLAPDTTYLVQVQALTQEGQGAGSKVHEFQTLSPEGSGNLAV
As a reminder, the Ki is the dissociation constant of the complex between target and ligand, obtained from inhibition or displacement. [Sar][Sar]AHD[Tle]PCPWGPFWCPVNRPGC (linker 8-15-22 via TBMB) [Bicycle Compound 217]: the affinity corresponds to a Ki of 0.49 nM.

For Ac-[Sar][Sar]AH[dD]VPCPWGPFWCPVNRPGC (linker 8-15-22 via TBMB) [Bicycle Compound 210], the Ki was determined as 1.1 nM.

The molecule [βAla][Sar][Sar][Sar][Sar][Sar][Sar][Sar][Sar][Sar][Sar]H[dD]VPCPWGPFWCPVNRPGC (linker 16-23-30 via TBMB) [Bicycle Compound 226] had a Ki of 0.84 nM.

For the molecule [Sar][Sar]A[dH]DVPCPWGPFWCPVNRPGC (linker 8-15-22 via TBMB) [Bicycle Compound 197], the Ki was found to be 1.2 nM.

[Sar][Sar]AH[dD]VPCPWGPFWCPVNRPGC (linker 8-15-22 via TBMB) [Bicycle Compound 209]: the Ki is 1.25 nM.

Turning to Ac-[Sar][Sar]A[dD]DVTCP[1Nal]G[Aib]FWCP[Tle]N[hArg]PGC (linker 8-15-22 via TBMB) [Bicycle Compound 284], the Ki amounted to 3.8 nM.

Consider [βAla][Sar][Sar][Sar][Sar][Sar][Sar][Sar][Sar][Sar][Sar]HDVPCPWGPFWCPVNRPGC (linker 16-23-30 via TBMB) [Bicycle Compound 223], for which the affinity, expressed as Ki, was 1.29 nM.

In the case of Ac-[Sar][Sar]AH[dD]V[Aib]CPWGPFWCPVNRPGC (linker 8-15-22 via TBMB) [Bicycle Compound 213], the inhibition constant Ki worked out at 1.9 nM.

As to Ac-[Sar][Sar]A[dH]DVPCP[1Nal]GPFWCP[Tle]N[hArg]PGC (linker 8-15-22 via TBMB) [Bicycle Compound 230], the Ki turned out to be 1.8 nM.

The molecule Ac-[Sar][Sar]A[dD]DVTCP[1Nal]GPF[1Nal]CPVNRPGC (linker 8-15-22 via TBMB) [Bicycle Compound 283] came in with a Ki of 0.28 nM.

[Sar][Sar]A[Ala(2-furyl)]DVPCPWGPFWCPVNRPGC (linker 8-15-22 via TBMB) [Bicycle Compound 203] returned a Ki of 0.49 nM.

As to [Sar][Sar]AHD[dA]PCPWGPFWCPVNRPGC (linker 8-15-22 via TBMB) [Bicycle Compound 215], affinity was put at a Ki of 26 nM.

Take Ac-[Sar][Sar]A[dD]DVTCPWGPFWCPVNRPGC (linker 8-15-22 via TBMB) [Bicycle Compound 281]: the inhibitory constant (Ki) was determined as 5.78 nM.

On to [Sar][Sar]AHDV[dA]CPWGPFWCPVNRPGC (linker 8-15-22 via TBMB) [Bicycle Compound 219], for which the Ki is 15 nM.

As to [Sar][Sar]AHDVACPWGPFWCPVNRPGC (linker 8-15-22 via TBMB) [Bicycle Compound 218], the Ki turned out to be 1.27 nM.

Ac-[Sar][Sar]A[dH]DVPCPWGPAWCPVNRPGC (linker 8-15-22 via TBMB; also: A13 (ΨAla): reduced amide backbone bond) [Bicycle Compound 228] showed a Ki of 210 nM.

For Ac-[Sar][Sar]AH[dD][Tle]PCPWGPFWCPVNRPGC (linker 8-15-22 via TBMB) [Bicycle Compound 211], the Ki was 3.1 nM.

In turn, Ac-[Sar][Sar]A[dH]DVPCPWG[Aib]FWCP[Tle]NR[Aib]GC (linker 8-15-22 via TBMB) [Bicycle Compound 233] came in with a Ki of 4.8 nM.

For Ac-[Sar][Sar]H[dD]VPCPW[azaGly]PFWCPVNRPGC (linker 7-14-21 via TBMB) [Bicycle Compound 267], the Ki was 0.66 nM.

In turn, Ac-[Sar][Sar]AH[dD]VPCP[1Nal]GPFWCP[Tle]N[hArg]PGC (linker 8-15-22 via TBMB) [Bicycle Compound 227] came in with a Ki of 0.75 nM.

The molecule [Sar][Sar]AHDV[Aze]CPWGPFWCPVNRPGC (linker 8-15-22 via TBMB) [Bicycle Compound 221] yielded a Ki of 3.1 nM.

[Sar][Sar]AHDV[Aib]CPWGPFWCPVNRPGC (linker 8-15-22 via TBMB) [Bicycle Compound 220] returned a Ki of 0.83 nM.

For [Sar][Sar]A[ThiAz]DVPCPWGPFWCPVNRPGC (linker 8-15-22 via TBMB) [Bicycle Compound 202], the Ki is 0.7 nM.

For the molecule Ac-[Sar][Sar]A[dD]DVTCP[1Nal]GPFWCPVNRPGC (linker 8-15-22 via TBMB) [Bicycle Compound 282], the affinity, expressed as Ki, was 0.87 nM.

Ac-[Sar][Sar]A[dH]D[Tle]PCPWGPFWCPVNRPGC (linker 8-15-22 via TBMB) [Bicycle Compound 204] yielded a Ki of 2.15 nM.

As for Ac-[Sar][Sar]A[dH]DVPCPWGPFWCPVNRPGC (linker 8-15-22 via TBMB) [Bicycle Compound 196], the affinity, expressed as Ki, was 0.95 nM.

Turning to Ac-[Sar][Sar]AH[dD]V[Sar]CPWGPFWCPVNRPGC (linker 8-15-22 via TBMB) [Bicycle Compound 212], the Ki is 4.95 nM.

[Sar][Sar]AHD[Aib]PCPWGPFWCPVNRPGC (linker 8-15-22 via TBMB) [Bicycle Compound 216] returned a Ki of 2.77 nM.

As to Ac-[Sar][Sar][dA]HDVPCPWGPFWCPVNRPGC (linker 8-15-22 via TBMB) [Bicycle Compound 194], the Ki turned out to be 1.2 nM.

Consider [Sar][Sar]A[2Thi]DVPCPWGPFWCPVNRPGC (linker 8-15-22 via TBMB) [Bicycle Compound 201], for which affinity was put at a Ki of 0.6 nM.

Consider [Sar][Sar]AHDV[Pip]CPWGPFWCPVNRPGC (linker 8-15-22 via TBMB) [Bicycle Compound 222], for which the Ki worked out at 3.4 nM.

For another assay, the target named is T2, Human EphA2 (Ecto) (Human, UniProt P29317 24-537).
T2 construct: extracellular domain; in-house)
The assay is described as follows: FP competition; tracer Reference Compound C. As to the method:
as §1
T2 sequence (P29317 24-537): as the sequence (P29317 24-537) above
HSGCRPDPRCAYMNVCA (linker 4-10-16 via TATA) [Bicycle Compound Number 21 (TATA scaffold), HSGCRPDPRCAYMNVCA] displayed a Ki of 62.1 nM.

ACRNWGMYCAYPDTICA (linker 2-9-16 via TATA) [Bicycle Compound Number 35 (TATA scaffold), ACRNWGMYCAYPDTICA] showed a Ki of 282 nM.

ACMNDWWCAMGWKCA (linker 2-8-14 via TATA) [Bicycle Compound Number 15 (TATA scaffold), ACMNDWWCAMGWKCA]: the Ki was 278 nM.

Turning to ACVPDRRCAYMNVCA (linker 2-8-14 via TATA) [Bicycle Compound Number 16 (TATA scaffold), ACVPDRRCAYMNVCA], affinity was put at a Ki of 70 nM.

Turning to SRPCVIDSRCAYMNVCA (linker 4-10-16 via TATA) [Bicycle Compound Number 19 (TATA scaffold), SRPCVIDSRCAYMNVCA], the Ki amounted to 94.8 nM.

For DLRCGGDPRCAYMNVCA (linker 4-10-16 via TATA) [Bicycle Compound Number 18 (TATA scaffold), DLRCGGDPRCAYMNVCA], the Ki is 70.8 nM.

Regarding ACVPDRRCAFENVCVDH (linker 2-8-14 via TATA) [Bicycle Compound Number 25 (TATA scaffold), ACVPDRRCAFENVCVDH], the Ki is 97.3 nM.

For the molecule ESRCSPDARCAYMNVCA (linker 4-10-16 via TATA) [Bicycle Compound Number 20 (TATA scaffold), ESRCSPDARCAYMNVCA], affinity was put at a Ki of 57 nM.

ACRGEWGYCAYPDTICA (linker 2-9-16 via TATA) [Bicycle Compound Number 34 (TATA scaffold), ACRGEWGYCAYPDTICA] gave a Ki of 348 nM.

Consider ETVCLPDSRCAYMNVCA (linker 4-10-16 via TATA) [Bicycle Compound Number 23 (TATA scaffold), ETVCLPDSRCAYMNVCA], for which affinity was put at a Ki of 130 nM.

With ACVPDRRCAFQDVCDHE (linker 2-8-14 via TATA) [Bicycle Compound Number 27 (TATA scaffold), ACVPDRRCAFQDVCDHE], affinity was put at a Ki of 159 nM.

Take [βAla][Sar][Sar][Sar][Sar][Sar][Sar][Sar][Sar][Sar][Sar]ACVPDRRCAYMNVC (linker 13-19-25 via TATA) [Bicycle Compound Number 17 (TATA scaffold), (β-Ala)-Sar10-ACVPDRRCAYMNVC]: the Ki stood at 85 nM.

In turn, ACTKPTGFCAYPDTICA (linker 2-9-16 via TATA) [Bicycle Compound Number 33 (TATA scaffold), ACTKPTGFCAYPDTICA] gave a Ki of 268 nM.

ACVPDRRCAFRDVCLTG (linker 2-8-14 via TATA) [Bicycle Compound Number 28 (TATA scaffold), ACVPDRRCAFRDVCLTG]: the Ki turned out to be 1700 nM.
